In article PMC11570697, “2D4, a humanized monoclonal antibody targeting CD132, is a promising treatment for systemic lupus erythematosus” (Signal Transduction and Targeted Therapy, 2024):

B1: 2D4, humanized anti-CD132 monoclonal antibody (antibody, V domains shown)
VH: QVQLVQSGAEVKKPGSSVKVSCKTSGFNIEDIYLHWVRQAPGQGLEWMGRIDPANGKSNYDPKFQGRVTITADTSTSTAYMELSSLRSEDTAVYYCAALRFFGLDYWGQGTLVTVSS
VL: EIVLTQSPATLSLSPGERATLSCRATSSVSYMYWYQQKPGQAPELLIYRTSNLASGIPARFSGSGSGTDYTLTISSLEPEDFAVYYCQQWSSNPPTFGQGTKLEIK

Key:
[1] = target: human CD132 (common gamma chain cytokine receptor) (human) (UniProt P31785)
[2] = target: human CD132 (common gamma chain cytokine receptor) (human, UniProt P31785); test: cell-based or functional assay
Chain of human CD132 (common gamma chain cytokine receptor) (P31785 23-262): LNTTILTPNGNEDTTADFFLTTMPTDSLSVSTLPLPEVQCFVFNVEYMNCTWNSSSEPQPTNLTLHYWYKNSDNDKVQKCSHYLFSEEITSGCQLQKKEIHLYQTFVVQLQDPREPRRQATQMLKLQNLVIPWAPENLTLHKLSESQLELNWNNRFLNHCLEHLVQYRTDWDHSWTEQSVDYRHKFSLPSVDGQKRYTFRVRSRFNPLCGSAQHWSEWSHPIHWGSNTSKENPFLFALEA

Chain of human CD132 (common gamma chain cytokine receptor) (human) (P31785 23-262): as above

| Molecule | maximum percent inhibition of IL-2-induced STAT5 phosphorylation in CD3+ T cells of human PBMCs (gradient dilutions, up to 200 nM antibody) [1] [%] | IC50 of blocking human IL-21: IFN-γ secretion by NK92 cells (ELISA), relative to REGN7257 [2] [fold] | IC50 of blocking human IL-21: STAT3 phosphorylation in CD3+ T cells of human PBMCs (flow cytometry), relative to REGN7257 [2] [fold] |
| --- | --- | --- | --- |
| REGN7257, pan CD132 blocking monoclonal antibody | 100 |  |  |
| B1 |  | 10 | < 2 |
